Values quoted from earlier work, collected in patent US6660905B1, “Mice comprising engrafted functional human hepatocytes” (The Board of Trustees of the Leland Stanford Junior …, priority 1999, dated 2003).

## HGF: human hepatocyte growth factor
  half-life: on the order of minutes
